{"source": "the nanobody polyreactivity screen of Harvey et al. (2022)"}
{"assay": "yeast display, Sf9 membrane polyspecificity reagent, FACS + sequencing; frameworks hold sequencing errors", "summary_of_the_method": "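Galactose-induced (36–48 hours) yeast carrying a synthetic nanobody display library were exposed to 10% biotinylated, detergent-solubilized Sf9 membrane reagent at 4 °C for 1 hour. FACS followed streptavidin microbead enrichment, using low and high (top ~1%) gates for expression (anti-HA) and reagent binding (streptavidin). Colony PCR, MiSeq 2 × 250 sequencing and CDR-length filtering followed. Labels for polyreactivity reflect the gate of origin.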"}
{"sequence": "QVQLVESGGGLVQAGGSLRLSCAASGLIFYGYVMGWYRQAPGKERELVAGISRNSGSTYYADSVKGRFTISRDNAKITVYLQMKSLKPEDTAVYYCDALKFEAWAGEDYWGQGTQLTVSS", "polyreactivity (PSR sort gate)": "low polyreactivity"}
{"sequence": "QVQLVESGGGLVQAGGSLRLSCAASGLIFYHNTMGWYRQAPGKEREFVASITQSGGSTYYADSVKGRFTISRDNAKNTVYLQMNSLKPEDTAVYYCAKRLRPGGYWYDYWGQGTQVTVSS", "polyreactivity (PSR sort gate)": "high polyreactivity"}
{"sequence": "QVQLVESGGGLVQAGGSLRLSCAASGLIFYKYAMGWYRQAPGNERELVAAISRGDNTYYADSVKGRFTISRDNAKNTVYLQMNSLKPEDTALYYCAAYRWIYQSQYQGYWLDYWGQGTQVTVSS", "polyreactivity (PSR sort gate)": "high polyreactivity"}
{"sequence": "QVQLVESGGGLVQAGGSLRLSCAASGLIFYLYAMGWYRQAPGKEMELVAAISSGGSTYYADSVKGRFTISRDNAKNTVYLQMISLKPEDTAVYYCNARYYYVSGLQAYYYWGQGTQVTVSS", "polyreactivity (PSR sort gate)": "high polyreactivity"}
{"sequence": "QVQLVESGGGLVQAGGSLRLSCAASGLIFYPYAMGWYRQAPGKERELVAGISSSGDSTYYADSVKGRFTISRDNAKNTVYLQMNSLKPDDTAVYYCNTGWDPYGYDYWGQGTQVTVSS", "polyreactivity (PSR sort gate)": "low polyreactivity"}
{"sequence": "QVQLVESGGGLVQAGGSLRLSCAASGLIFYRYAMGRYRQAPRKERELVAAISSSGGSTYYADSVKGRFTISRDNAKNTVYLQMNSLKPEDTAVYYCSARPSTHGYKYGYWGQGTQVTVSS", "polyreactivity (PSR sort gate)": "high polyreactivity"}
{"sequence": "QVQLVESGGGLVQAGGSLRLSCAASGLIFYRYAMGWYRQAPGKERELVAAISSSGGSTYYADSVKGRFTISRDNAKNTVYLQMNSLKPDDTAVYYCAARPSTHGYKYGYWGQGTQVTVSS", "polyreactivity (PSR sort gate)": "high polyreactivity"}
{"sequence": "QVQLVESGGGLVQAGGSLRLSCAASGLIFYRYAMGWYRQAPGKERELVAVITRSGGNTNYADSVKGRFTISRDNAKNTVYLQMNSLKPEDTAVYYCATRGIWKKVPYYYWGQGTQVTVSS", "polyreactivity (PSR sort gate)": "high polyreactivity"}
{"sequence": "QVQLVESGGGLVQAGGSLRLSCAASGLIFYSYAMGWYRQAPGKERELVAAISKRGGSTYYADSVKGRFTISRDNAKNTVYLQMNSLKPEDTAVYYCAAVIHGSSQYYGGTYGRYYWGQGTQVTVSS", "polyreactivity (PSR sort gate)": "high polyreactivity"}
{"sequence": "QVQLVESGGGLVQAGGSLRLSCAASGLIFYYNAMGWYRPAPGKERELVAAISWSGGSTYYADSVKGRFTISRDNAKNTVYLQMNSLKPEDTAVYYCNADYHSVRRDYWGQGTQVTVSS", "polyreactivity (PSR sort gate)": "low polyreactivity"}
{"sequence": "QVQLVESGGGLVQAGGSLRLSCAASGLIFYYNAMGWYRQAPGKERELVAAISTGGSTNYADSVKGRFTISRDNAKNTVYLQMNSLKPEDTAVYYCAAGTRNPYGYKMYYWGQGTQVTVSS", "polyreactivity (PSR sort gate)": "high polyreactivity"}
{"sequence": "QVQLVESGGGLVQAGGSLRLSCAASGLIFYYNAMGWYRQAPGKERELVATIRGSGSSTYYADSVKGRFTISRDNAKNTVYLQMNSLKPEDTAVYYCAAKGYRCFRHGGYYFKFDYWGQGTQVTVSS", "polyreactivity (PSR sort gate)": "high polyreactivity"}
{"sequence": "QVQLVESGGGLVQAGGSLRLSCAASGLIIPFYAMGWYRQAPGKERELVAAISWSAGSTYYADSVKGRFTISRDNAKNTVYLQMNCLKPEDTAVYYCAATAYYYYDYDYWGQGTQVTVSS", "polyreactivity (PSR sort gate)": "low polyreactivity"}
{"sequence": "QVQLVESGGGLVQAGGSLRLSCAASGLIIRYYAMGWYRQARGKERELVAAISYNGGSTYYADSVKGRFTISRDNAKNTVYLQMNSLKPEDTAVYYCAARLYGRYGYWGQGTQVTVSS", "polyreactivity (PSR sort gate)": "high polyreactivity"}
{"sequence": "QVQLVESGGGLVQAGGSLRLSCAASGLIISWYAMGWNRQEPGTERELVAAISSGGSTTYADSVKGRFTISRDNAKNTVYLQMNSLKPEDTAVYYCNADQVFGYNYWGQGTQLTVSS", "polyreactivity (PSR sort gate)": "high polyreactivity"}
{"sequence": "QVQLVESGGGLVQAGGSLRLSCAASGLIIWLYTMGWYRQAPGKERELVAAIDWSGGSTYYADSVKGRFTISRDNAKNTVYLQMNSLKPEYTAVYYCAADPEPSYRFDYWGQGTQVTVSS", "polyreactivity (PSR sort gate)": "low polyreactivity"}
{"sequence": "QVQLVESGGGLVQAGGSLRLSCAASGLILKNYAMGWYRQAPWKERELVAAITRSGGSTYYADSVKGRFTISRDNAKNTVYLQMNSLKPEDTAVYYCAARNPSGKGRYDYRGQGTQVTVSS", "polyreactivity (PSR sort gate)": "high polyreactivity"}
{"sequence": "QVQLVESGGGLVQAGGSLRLSCAASGLILNYYTMGWYRQAPGKERELVATISSSTGSTYYADSVKGRFTISRDNAKNTVYLQMNSLKPEDTAVYYCAADHWSYWQIYDFWGQGTQVTVSS", "polyreactivity (PSR sort gate)": "low polyreactivity"}
{"sequence": "QVQLVESGGGLVQAGGSLRLSCAASGLILRKYAMGWYRQAPGKEREFVAAITQTGSRTYYADSVKVRFTISRDNAKYTVYFQMNSLIPEDTAVYYCNAVNYRSSRDSGYWGQGTQVTVSS", "polyreactivity (PSR sort gate)": "high polyreactivity"}
{"sequence": "QVQLVESGGGLVQAGGSLRLSCAASGLILRRYAMGWYRQAPGKERELVAAITSGGRTYYADSVKGRFTISRDNAKNTVYLQMNSLKPEDTAVYYCNAVKLVRHTTPYDYWGQGTQVTVSS", "polyreactivity (PSR sort gate)": "high polyreactivity"}
{"sequence": "QVQLVESGGGLVQAGGSLRLSCAASGLILSDYVMGWYRQAPGKEREFVAAITSTGGSTYYADSVKGRFTISRDNAKNTVYLQMNSLKPEDTAVYYCAVRIHFPFPRRYYYWGQGTQVTVSS", "polyreactivity (PSR sort gate)": "high polyreactivity"}
{"sequence": "QVQLVESGGGLVQAGGSLRLSCAASGLILYNYAMGWYRQAPGKERELVAAISRSGGSTYYADSVKGRFTISRDNAKNTVYLQMNSLKPEDTAVYYCKVGYGRGSTIGGYDYWGQGTQVTVSS", "polyreactivity (PSR sort gate)": "high polyreactivity"}
{"sequence": "QVQLVESGGGLVQAGGSLRLSCAASGLISDRNAMGWYRQAPGKERELVASIRSGGSTYYADSVKGRFTISRDNAKNTVYLQMNSQKPEDTAVYYCAAGGGHTPVSYYLVPYMDYWGQGTQVTVSS", "polyreactivity (PSR sort gate)": "low polyreactivity"}
{"sequence": "QVQLVESGGGLVQAGGSLRLSCAASGLISRRNAMGWYRQAPGKERELVAAISTGSSTNYADSVKGRFTISRDNAKNTVYLQMNSLKPEDTAVYYCAATQYWWSTLGIRDDYWGQGSQVTVSS", "polyreactivity (PSR sort gate)": "low polyreactivity"}
{"sequence": "QVQLVESGGGLVQAGGSLRLSCAASGLISSINAMGWYRQAPGKERELVATITSGGSTYYADSVKGRFTISRDNAKNTVYLQMNSLKPEDTAVYYCAARSSVRAYYSWGHGTQVTVSS", "polyreactivity (PSR sort gate)": "high polyreactivity"}
{"sequence": "QVQLVESGGGLVQAGGSLRLSCAASGLNFARNAMGWYRQAPGKERELVAAISSSGNTYADSVKGRFTISRDNAKNTVYLQMNSLKPEDTAVYYCAADYVRWGQRKRSRYYYWGQGTQVTVSS", "polyreactivity (PSR sort gate)": "high polyreactivity"}
{"sequence": "QVQLVESGGGLVQAGGSLRLSCAASGLPFRDYAMGWYRQAPGTERELVAAISDGDDSTSYADSVKGRFTSSRDNAKTTGYLQMNSQNPEDTAVYDCAPYLSDPDFLAGIYGLYNYWGQGTQVTVSS", "polyreactivity (PSR sort gate)": "low polyreactivity"}
{"sequence": "QVQLVESGGGLVQAGGSLRLSCAASGLSFGDYTMGWYRQAPGKERELVAAITGSGASTYYADSVKGRFTISRDNAKNTVYLQMTRLKPEDTAGYYCAAERTPSYRAYDYWGQATQVTVSS", "polyreactivity (PSR sort gate)": "low polyreactivity"}
{"sequence": "QVQLVESGGGLVQAGGSLRLSCAASGLSFPLNAMGWYRPAPGKERQLVAAITYSGGGTYYADSVKGRFTISRDTAKNTGYLQMNSLKTEDTAVYYCAADGSVSYYTYYYWGQGTQVTVSS", "polyreactivity (PSR sort gate)": "low polyreactivity"}
{"sequence": "QVQLVESGGGLVQAGGSLRLSCAASGLTCASYVMGWYRQAPGKERELVAAISSSGDSTYYADSVKGRFTISRDNAKNTFYLEMNSLKPEDTAVYYCASNDYVWGQGTQVTVSS", "polyreactivity (PSR sort gate)": "low polyreactivity"}
{"sequence": "QVQLVESGGGLVQAGGSLRLSCAASGLTCYYYARGLYRQAPGKERELVADISSGGSTKYADSVKGRFTISRDNAKNTVYLQMNSLKPEDTAVYYCATGYFCGFRYRPYYYWGQGTQVTVSS", "polyreactivity (PSR sort gate)": "high polyreactivity"}
{"sequence": "QVQLVESGGGLVQAGGSLRLSCAASGLTFADNTMGWYRQAPGKERELVAAIDWSGGGTDYADSVKGRFTISRDNAKNTVYLQMNSLKPEDTAVYYCNAERTSWEDDYWGQGTQVTVSS", "polyreactivity (PSR sort gate)": "low polyreactivity"}
{"sequence": "QVQLVESGGGLVQAGGSLRLSCAASGLTFAGNAMGWYRQAPGKEREFVATITWSDGSTRYADSVKGRFTISRDNAKNTVYLQMNSLKPEDTAVYYCNTQYPDYFYEFNYWGQGTQVTVSS", "polyreactivity (PSR sort gate)": "low polyreactivity"}
{"sequence": "QVQLVESGGGLVQAGGSLRLSCAASGLTFAGYAMGWYRQAPGKERELVAAISSGGRTNYADSVKGRFTISRDNAKNTVYLHMNSLKPADTAVYYCAARISTHAPHRRLTYEYWGQGTQVTVSS", "polyreactivity (PSR sort gate)": "low polyreactivity"}
{"sequence": "QVQLVESGGGLVQAGGSLRLSCAASGLTFAYNAMGWYRQAPGKARQLVASINWSDSSTYYADSVKGRFTISRDNAKNTVYLQMHSLKPEDTEVYYCAADAYYVGQGYDYGGQGTQVTVSS", "polyreactivity (PSR sort gate)": "low polyreactivity"}
{"sequence": "QVQLVESGGGLVQAGGSLRLSCAASGLTFAYYAMGWYIQAPGKERELVAAITWNGGSTYYADSVKGRFTISRDNSKNTVYLQMNSLKPEDTAVYYCAASWGYCYSGRFDYWGQGTEVTVSS", "polyreactivity (PSR sort gate)": "high polyreactivity"}
{"sequence": "QVQLVESGGGLVQAGGSLRLSCAASGLTFAYYDMGWYRQAPGKERELVAAITSGGTTNYADSVKGRFTISRDNAKNTVYLQMNSLKPEDTAVYYCNADYYSRIVGVRIYDYWGQGTQVTVSS", "polyreactivity (PSR sort gate)": "low polyreactivity"}
{"sequence": "QVQLVESGGGLVQAGGSLRLSCAASGLTFDEYAMGWYRQPPGKERELVARITQSGGSTYYADSVKGRFTISRDNAKNTVYLQMNSLKPEDTAVYYCNAGAPARYWWEGDYWGQGTQVTVSS", "polyreactivity (PSR sort gate)": "high polyreactivity"}
{"sequence": "QVQLVESGGGLVQAGGSLRLSCAASGLTFDSNVMGWYRQAPGKERELVAAITSSGRTYYADSVKGRFTISRDNEKNTVYLQMNSLKPEDTAVYYCAARNLAYTRKGYYYWGQGTQVTVSS", "polyreactivity (PSR sort gate)": "high polyreactivity"}
{"sequence": "QVQLVESGGGLVQAGGSLRLSCAASGLTFDSNVMRWYRQAHGKEMELVAAITSSGRTYYADSVKGRFTISRDNAKNTFYLQMNSLKPEDTAVYYCAARNLAYTRKGYYYWGQGTQVTVSS", "polyreactivity (PSR sort gate)": "high polyreactivity"}
{"sequence": "QVQLVESGGGLVQAGGSLRLSCAASGLTFDTYAMGWYRQAPGKERELVAAISICGRTNYADSVKGRFTISRDNAKNTVYLQMNSLKPQDTAVYYCAVGAVVPGRRRRTYYYWGQGTQVTVSS", "polyreactivity (PSR sort gate)": "high polyreactivity"}
{"sequence": "QVQLVESGGGLVQAGGSLRLSCAASGLTFDVYTMGWYRQAPGKERELVAGITSGGSTDYADSVKGRFTISRDNAKNTVYLQMNSLKPEDTAVYYCNKPFPYYPDGPNGYDYWGQGTQVTVSS", "polyreactivity (PSR sort gate)": "low polyreactivity"}
{"sequence": "QVQLVESGGGLVQAGGSLRLSCAASGLTFDWNTMGWYRQAPGKERELVATITYTGGSTYYADSVKGRFTISRDNAKNTVYLQMNSLKPEDTAVYFCAARRTRYRSYSRVRYTYDYWGQGTQVTVSS", "polyreactivity (PSR sort gate)": "high polyreactivity"}
